The text below walks through data of patent US20260000597A1 (priority 2018, published 2026).

This test deals with AchR (Homo sapiens, UniProt P02708). As to the kind of experiment: ELISA of screened peptide phages on AchR versus streptavidin (OD450). The following applies: absorbance at 450 nm. In kind it is binding. An outline of the steps: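 Reported as the ratio of AchR to streptavidin OD450, with TMB read-out after HRP anti-M13 detection. Wells coated with 5 μg/ml target overnight at 4 °C and BSA-blocked, then incubated 1 h at 30 °C with helper-rescued phage from individual plaques.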
Sequence of AchR (P02708 21-457): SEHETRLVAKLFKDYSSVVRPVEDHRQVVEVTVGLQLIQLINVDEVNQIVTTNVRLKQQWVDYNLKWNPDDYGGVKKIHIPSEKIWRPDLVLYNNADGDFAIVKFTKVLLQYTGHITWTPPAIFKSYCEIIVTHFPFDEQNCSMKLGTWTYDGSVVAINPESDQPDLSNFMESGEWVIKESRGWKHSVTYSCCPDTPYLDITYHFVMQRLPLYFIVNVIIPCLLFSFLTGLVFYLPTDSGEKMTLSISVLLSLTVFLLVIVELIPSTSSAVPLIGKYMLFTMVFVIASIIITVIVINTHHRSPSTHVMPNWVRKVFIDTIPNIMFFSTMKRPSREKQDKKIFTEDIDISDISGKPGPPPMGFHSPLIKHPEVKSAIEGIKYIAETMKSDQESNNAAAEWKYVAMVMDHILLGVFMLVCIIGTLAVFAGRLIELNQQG

The mark [1] stands for this setting: ELISA of selected 14-mer (L3) peptide phages on AchR, Spep-2 positive control.
The mark [2] stands for this setting: phage ELISA, 5 μg/ml AchR, 4th and 5th round biopanning phages.
The mark [3] stands for this setting: ELISA of selected 11-mer (L2) peptide phages on AchR, Spep-2 positive control.

“L3-141 (FFYRLRRCLTRWWV; AchR binding peptide) [Peptide L3-141]” displayed an OD under setting [1] of 0.504.
The substance KQKRQWAR [Peptide L1-191] showed an OD under setting [2] of 0.649.
The same measure, in the same setting: the same measure for KYKREEYR [Peptide L1-161]: 0.474; for RPRRSLDR [Peptide L1-17]: 0.653.
The substance “L2-138 (IMERQRKSQHR; AchR binding peptide) [Peptide L2-138]” displayed an OD under setting [3] of 0.509.
On to “L2-156 (YGLRMRKWYMK; AchR binding peptide) [Peptide L2-156]”, for which the OD under setting [3] is on record as 0.683.
“L2-31 (NNSRSKRFMNR; AchR binding peptide) [Peptide L2-31]” displayed an OD under setting [3] of 0.737.
For the substance RLRRRYRR [Peptide L1-45], the OD under setting [2] turned out to be 0.597.
Under setting [1], “L3-127 (WVDRSRKFEDRNCL; AchR binding peptide) [Peptide L3-127]” had an OD of 0.608.
Take “GGGRRRRRRRR [Peptide L2-204, reference compound]”: under setting [2], the OD was found to be 0.311.
“L3-122 (MHPRPRKMSHKMSC; AchR binding peptide) [Peptide L3-122]”: the OD under setting [1] is reported as 0.691.
“L2-16 (VDVRNKKSNNR; AchR binding peptide) [Peptide L2-16]”: the OD under setting [3] is 0.77.
On to “L3-136 (PFDRARRDLHRIMM; AchR binding peptide) [Peptide L3-136]”, for which the OD under setting [1] is on record as 0.512.
Under setting [2], RNKRMDGK [Peptide L1-157] had an OD of 0.585.
“L2-107 (VKHKERKCQRR; AchR binding peptide) [Peptide L2-107]” displayed an OD under setting [3] of 0.681.
Same read-out and setting: then “L2-130 (GYDRARKGTLR; AchR binding peptide) [Peptide L2-130]”, with 0.64.
KEKRAVHK [Peptide L1-48] yielded an OD under setting [2] of 0.519.
As to “L2-155 (NEARIKKCDVK; AchR binding peptide) [Peptide L2-155]”, under setting [3], the OD turned out to be 0.742.
As to “L2-190 (NLVKSKKVEEK; AchR binding peptide) [Peptide L2-190]”, the OD under setting [3] was 0.721.
Take KIKKAARR [Peptide L1-35]: under setting [2], the OD was 0.556.
Under setting [1], “L3-91 (CWCRQRKCFHKPWI; AchR binding peptide) [Peptide L3-91]” registered an OD of 0.749.
Under setting [3], “L2-179 (GIAKSKRNAGR; AchR binding peptide) [Peptide L2-179]” gave an OD of 0.716.
On to KSRRAVFR [Peptide L1-151], for which the OD under setting [2] was 0.479.
Turning to “L3-115 (NDPRLRKHNHRCCT; AchR binding peptide) [Peptide L3-115]”, under setting [1], the OD was found to be 0.685.
In turn, RSKRMNGK [Peptide L1-58] displayed an OD under setting [2] of 0.472.
Same read-out and setting: then KTRRSACR [Peptide L1-134], with 0.365.
On the same count and under the same terms, the same measure for RQKKPWVK [Peptide L1-31]: 0.604; for RGRKPIWK [Peptide L1-108]: 0.535; for KEKRLYAR [Peptide L1-149]: 0.34.
The same measure, in the same setting: then KNRKNLYR [Peptide L1-36], with 0.553.
Under setting [1], “L3-43 (FTHKNRRDSLRVWM; AchR binding peptide) [Peptide L3-43]” had an OD of 0.93.
Take KCKKMTER [Peptide L1-37]: under setting [2], the OD amounted to 0.524.
For “L3-109 (YITKFRKFLMKDQF; AchR binding peptide) [Peptide L3-109]”, under setting [1], the OD turned out to be 0.613.
As for “L2-111 (GYFRPRKETCK; AchR binding peptide) [Peptide L2-111]”, the OD under setting [3] is on record as 0.594.
The substance “L3-35 (LQCKYRRGSDKQPQ; AchR binding peptide) [Peptide L3-35]” yielded an OD under setting [1] of 0.747.
Under setting [3], “L2-176 (WWHKHRRAQSK; AchR binding peptide) [Peptide L2-176]” gave an OD of 0.574.
Still for that read-out and setting: the same measure for “L2-191 (PDSRLKKHEAK; AchR binding peptide) [Peptide L2-191]”: 0.689.
In the case of “L3-30 (WAHKCKKPGQRIPP; AchR binding peptide) [Peptide L3-30]”, the OD under setting [1] was determined as 0.771.
Consider KPRKIQGR [Peptide L1-137], for which, under setting [2], the OD is 0.458.
On to “L2-168 (GGAKNKKVVSR; AchR binding peptide) [Peptide L2-168]”, for which the OD under setting [3] is on record as 0.725.
“L3-72 (TGCRCKRSMYKNLH; AchR binding peptide) [Peptide L3-72]”: the OD under setting [1] was found to be 0.746.
Under setting [3], “L2-123 (HDTKCKKMYAK; AchR binding peptide) [Peptide L2-123]” showed an OD of 0.473.
On to “L3-195 (IEDKSKRFNCKECG; AchR binding peptide) [Peptide L3-195]”, for which the OD under setting [1] is 0.7.
Same read-out and setting: the same measure for “L3-118 (YGIRDRRPMTKHTQ; AchR binding peptide) [Peptide L3-118]”: 0.69.
For “RRRRRRRRRRR [Peptide L2-201, reference compound]”, the OD under setting [2] came to 0.307.
As to “L3-173 (QLGKQKREATREYV; AchR binding peptide) [Peptide L3-173]”, the OD under setting [1] is recorded as 0.775.
For the substance “L3-19 (YMKKKRKSLLRTSL; AchR binding peptide) [Peptide L3-19]”, the OD under setting [1] amounted to 0.796.
Consider “L2-177 (LNSKPRRVEFK; AchR binding peptide) [Peptide L2-177]”, for which the OD under setting [3] was determined as 0.768.
Under setting [1], “L3-53 (HCLRTKKLINKICS; AchR binding peptide) [Peptide L3-53]” registered an OD of 0.679.
RFRKMIPK [Peptide L1-115] returned an OD under setting [2] of 0.451.
“L3-25 (CFQRKRKSLLRVLR; AchR binding peptide) [Peptide L3-25]” yielded an OD under setting [1] of 0.807.
With “L2-63 (IDGKWRKICTR; AchR binding peptide) [Peptide L2-63]”, the OD under setting [3] worked out at 0.742.
“L3-36 (AFSRIKRGVLKLLS; AchR binding peptide) [Peptide L3-36]”: the OD under setting [1] came to 0.787.
For the substance “L2-1 (EDYKYRRQNYK; AchR binding peptide) [Peptide L2-1]”, the OD under setting [3] is recorded as 0.705.
Take RTKRWQLK [Peptide L1-94]: the OD under setting [2] stood at 0.496.
On to KVKRVWGR [Peptide L1-163], for which the OD under setting [2] is on record as 0.618.
In the case of “L2-200 (QGMKLKRIWSK; AchR binding peptide) [Peptide L2-200]”, under setting [3], the OD is given as 0.744.
Under setting [3], “L2-60 (HADKFRRFNMR; AchR binding peptide) [Peptide L2-60]” gave an OD of 0.697.
KVRRVFLK [Peptide L1-132] returned an OD under setting [2] of 0.541.
The substance KPKKPPAR [Peptide L1-84] came in with an OD under setting [2] of 0.576.
As for “L3-179 (YNARVKREGIKNIT; AchR binding peptide) [Peptide L3-179]”, under setting [1], the OD is listed as 0.743.
“L2-151 (TQCKDRRVSDR; AchR binding peptide) [Peptide L2-151]” registered an OD under setting [3] of 0.749.
As to “L3-14 (FPGKSKKQWHRLWP; AchR binding peptide) [Peptide L3-14]”, the OD under setting [1] stood at 0.892.
On the same count and under the same terms, the same measure for “L3-65 (CLEKLRKAVHRQRR; AchR binding peptide) [Peptide L3-65]”: 0.731.
KAKRGHFK [Peptide L1-68] gave an OD under setting [2] of 0.55.
Still for that read-out and setting: the same measure for “GGGRKKRRQRR [Peptide L2-202, reference compound]”: 0.314; for KIKKLSQK [Peptide L1-168]: 0.588.
In the case of “L2-51 (SLYRQKRHDYK; AchR binding peptide) [Peptide L2-51]”, the OD under setting [3] is listed as 0.653.
Still for that read-out and setting: then “L2-146 (LIGKFKKPFYR; AchR binding peptide) [Peptide L2-146]”, with 0.605.
In the case of KKRKSLLR [Peptide L1-159], the OD under setting [2] is reported as 0.593.
The same measure, in the same setting: the same measure for KNKRTPVK [Peptide L1-86]: 0.551.
On the same count and under the same terms, then KSRRSAGK [Peptide L1-73], with 0.644.
Take “L2-96 (ISDKAKRQHFK; AchR binding peptide) [Peptide L2-96]”: under setting [3], the OD was 0.708.
As to “L2-132 (LFTRIKRLVCK; AchR binding peptide) [Peptide L2-132]”, the OD under setting [3] turned out to be 0.515.
As to KARRVGTK [Peptide L1-143], under setting [2], the OD stood at 0.416.
Same read-out and setting: then RARKDAFK [Peptide L1-11], with 0.703.
In turn, “L3-104 (ASVRDRKMGYKSDG; AchR binding peptide) [Peptide L3-104]” had an OD under setting [1] of 0.57.
On to “L2-17 (GLNRWRRCHHK; AchR binding peptide) [Peptide L2-17]”, for which, under setting [3], the OD came to 0.72.
Substance KHKKQNVR [Peptide L1-18] yielded an OD under setting [2] of 0.627.
With “L3-80 (MEGREKKSYNKGEN; AchR binding peptide) [Peptide L3-80]”, under setting [1], the OD was determined as 0.589.
Substance “L3-128 (IVNRAKRSQIRFDV; AchR binding peptide) [Peptide L3-128]” showed an OD under setting [1] of 0.523.
On the same count and under the same terms, then “L3-161 (MAAKWKKDGMKSHY; AchR binding peptide) [Peptide L3-161]”, with 0.733.
KLKRRSRR [Peptide L1-16] showed an OD under setting [2] of 0.62.
“L2-28 (CIWKSKRSPAK; AchR binding peptide) [Peptide L2-28]” had an OD under setting [3] of 0.762.
“L3-77 (VLIKQRKWQDRSCS; AchR binding peptide) [Peptide L3-77]”: under setting [1], the OD was found to be 0.688.
Take KVKRLWNR [Peptide L1-110]: the OD under setting [2] is given as 0.422.
The same measure, in the same setting: then RCKRFVGK [Peptide L1-173], with 0.63.
As for “L2-129 (TCIKYRRAHTK; AchR binding peptide) [Peptide L2-129]”, the OD under setting [3] stood at 0.603.
In turn, RYRRWFYR [Peptide L1-155] came in with an OD under setting [2] of 0.618.
